Measured values from US20240069033A1, “METHOD FOR SCREENING FOR CANDIDATE MOLECULE CAPABLE OF FORMING COMPLEX IN CONJUNCTION WITH PLURALITY OF TARGET MOLECULES” (Chugai Seiyaku Kabushiki Kaisha, priority 2020, published 2024).
Each block holds one binder with its values, some of them ahead of it. No end group written: not given here. puromycin linker = puromycin spacer joining the C-terminus of the translated peptide to its mRNA (mRNA display); mRNA = not defined here

Assays:
biotinylated GFP1-9 [1] = assay: mRNA display pull-down: 0.42 µM Display molecule with 1 µM biotinylated GFP1-9, streptavidin beads, TEV elution, qPCR
biotinylated GFP1-9 [2] = assay: mRNA display pull-down with biotinylated GFP1-9, qPCR
biotinylated GFP1-9 [3] = assay: mRNA display pull-down with biotinylated GFP1-9, qPCR; corrected with the display efficiency
[4] = molecular target: anti-ubiquitin antibody (Mouse IgG1 monoclonal antibody; clone name FK2); assay: mRNA display pull-down on anti-ubiquitin antibody (FK2) magnetic beads, qPCR; display molecule at 0.4 µM
[5] = molecular target: anti-ubiquitin antibody (Mouse IgG1 monoclonal antibody; clone name FK2); assay: mRNA display pull-down on anti-ubiquitin antibody (FK2) magnetic beads, qPCR; corrected with the display efficiency
[6] = molecular target: anti-ubiquitin antibody (Mouse IgG1 monoclonal antibody; clone name FK2); assay: mRNA display pull-down on anti-ubiquitin antibody (FK2) magnetic beads, heat elution, qPCR
[7] = molecular target: T1, biotinylated splitNanoluc1-8; assay: mRNA display pull-down with biotinylated splitNanoluc1-8, qPCR; corrected with the display efficiency
T1 chain: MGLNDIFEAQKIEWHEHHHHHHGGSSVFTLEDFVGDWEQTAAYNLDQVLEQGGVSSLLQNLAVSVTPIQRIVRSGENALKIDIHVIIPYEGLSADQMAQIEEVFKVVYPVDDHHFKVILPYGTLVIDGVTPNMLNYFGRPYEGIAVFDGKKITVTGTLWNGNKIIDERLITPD

[8] = molecular target: T1, biotinylated splitNanoluc1-8; assay: mRNA display pull-down: 33 nM Display molecule with 1 µM biotinylated splitNanoluc1-8, streptavidin beads, TEV elution, qPCR

Apparent recovery rate (%) (biotinylated GFP1-9 [1]): 0.0109%
Recovered nucleic acid amount (molecules) (biotinylated GFP1-9 [1]): 8.95e+07 molecules
fold lower recovery rate than the GFP10-11 fusion peptide (biotinylated GFP1-9 [2]): 1000 times
Recovery rate (%) (biotinylated GFP1-9 [3]): 0.012%
B1: GFP11 (peptide)
peptide: MEKRDHMVLLEYVTAAGITDASGSGSGSGSKK
modifications: not checked

Apparent recovery rate (%) [4]: 0.0001%
Recovered nucleic acid amount (molecules) [4]: 377000 molecules
Recovery rate (%) [5]: 0.0004%
B2: Epep-splitUb(N) (protein)
chain: MKVSALENEVSALEKEVSVLEKEVSALEKEVRALEKGSGSGSGSMQIFVKTLTGKTATLEVEPSDTIENVKAKIQDKEGIPGSGSGSGSKK
modifications: C-terminus joined through a puromycin linker to its own mRNA (reverse transcribed before the assay)

Recovery rate (%) [5]: 1.04%
Apparent recovery rate (%) [6]: 0.931%
Recovered nucleic acid amount (molecules) [6]: 1.63e+10 molecules
B3: splitUb(N) (peptide)
peptide: MMQIFVKTLTGKTATLEVEPSDTIENVKAKIQDKEGIPGSGSGSGSKK-{puromycin linker-mRNA}
modifications: reading uncertain; also: mRNA reverse transcribed before assay

Apparent recovery rate (%) (biotinylated GFP1-9 [1]): 0.0237%
Recovered nucleic acid amount (molecules) (biotinylated GFP1-9 [1]): 2.32e+08 molecules
fold lower recovery rate than the GFP10-11 fusion peptide (biotinylated GFP1-9 [2]): 1000 times
Recovery rate (%) (biotinylated GFP1-9 [3]): 0.028%
B4: GFP10 (peptide)
peptide: MDLPDDHYLSTQTILLKDLNGSGSGSGSKK
modifications: not checked

Recovery rate (%) [7]: 33.2%
Apparent recovery rate (%) [8]: 12.6%
Recovered nucleic acid amount (molecules) [8]: 3.45e+09 molecules
B5: splitNanoluc9-10 fusion peptide (peptide)
peptide: MGSMLFRVTINSGGGSGGGGSGVSGWRLFKKISGSGSGSGSENLYFQGKK
modifications: not checked
